Experimental findings from patent publication US20230265134A1 are described below.

The assay has as its target Ustekinumab lambda fusion light chain (human). As to the kind of experiment: LCMS of Fabs cleaved from IgG; 2 HC + 2 LC co-expressed in HEK293.

As to “Panitumumab heavy chain, CH1 K147F S183K (from UniProt P01857 1-101)”, the % HC1-LC2 product turned out to be 0%.
